In article doi:10.1101/2022.06.09.495492 (2022):

Columns and labels:
[1] = molecular target: His-△237 (T. vaginalis); experiment: ELISA; F-actin
[2] = molecular target: His-△237 (T. vaginalis); experiment: ELISA; G-actin

B1: GST-Tvactin (natural protein)
chain: not shown
Kd [1]: 10.3 µM | Kd [2]: 9.01 µM
